Experimental data taken from patent US20220049021A1 (Gilead, published 2022).
Where two headings read alike, the source gives them in different places.

T1: human FLT3 on AML5 cells (human, UniProt P36888 27-993)
T1 sequence (looked up): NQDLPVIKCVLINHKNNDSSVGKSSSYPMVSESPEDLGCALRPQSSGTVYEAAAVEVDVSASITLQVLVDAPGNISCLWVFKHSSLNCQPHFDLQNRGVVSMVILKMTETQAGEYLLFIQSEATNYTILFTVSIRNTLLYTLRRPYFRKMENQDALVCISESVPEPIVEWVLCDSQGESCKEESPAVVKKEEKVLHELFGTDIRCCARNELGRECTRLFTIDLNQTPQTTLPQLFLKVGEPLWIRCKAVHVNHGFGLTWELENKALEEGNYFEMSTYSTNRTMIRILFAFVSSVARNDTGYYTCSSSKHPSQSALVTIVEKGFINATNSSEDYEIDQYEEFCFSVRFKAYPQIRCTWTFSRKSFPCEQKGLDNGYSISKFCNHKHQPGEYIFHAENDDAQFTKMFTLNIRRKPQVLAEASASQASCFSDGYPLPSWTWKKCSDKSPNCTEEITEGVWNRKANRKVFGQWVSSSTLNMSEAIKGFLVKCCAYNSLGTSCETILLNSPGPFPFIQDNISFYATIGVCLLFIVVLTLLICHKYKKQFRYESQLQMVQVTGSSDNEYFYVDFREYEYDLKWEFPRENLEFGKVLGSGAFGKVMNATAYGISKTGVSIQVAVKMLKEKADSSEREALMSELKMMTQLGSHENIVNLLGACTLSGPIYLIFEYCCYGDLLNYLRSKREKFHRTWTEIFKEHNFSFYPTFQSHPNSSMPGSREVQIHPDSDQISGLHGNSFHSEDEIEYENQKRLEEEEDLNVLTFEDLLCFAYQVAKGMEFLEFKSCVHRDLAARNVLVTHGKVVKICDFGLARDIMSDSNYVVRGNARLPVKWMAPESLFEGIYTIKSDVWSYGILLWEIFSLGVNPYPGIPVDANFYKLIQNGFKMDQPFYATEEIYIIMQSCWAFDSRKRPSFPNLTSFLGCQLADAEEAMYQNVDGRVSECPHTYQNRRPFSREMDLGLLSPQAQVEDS


Legend:
human FLT3 on AML5 cells [1] = molecular target: T1, human FLT3 on AML5 cells; assay: cell-based or functional assay
human FLT3 on AML5 cells [2] = molecular target: T1, human FLT3 on AML5 cells; assay: cell-based or functional assay; remark: listed apart in the source
[3] = molecular target: T2, recombinant human C1q protein (Fitzgerald) (human, UniProt P02745 23-245; P02746 28-253; P02747 29-245, limits assumed); assay: ELISA; test protein immobilised in serial dilution, recombinant human C1q added, anti-C1q-HRP
T2 construct: also called human recombinant complement protein, C1q

human FLT3 on AML5 cells [4] = molecular target: T1, human FLT3 on AML5 cells; assay: cell-based or functional assay; remark: listed apart in the source
human FLT3 on AML5 cells [5] = molecular target: T1, human FLT3 on AML5 cells; assay: cell-based or functional assay; remark: listed apart in the source
human FLT3 on AML5 cells [6] = molecular target: T1, human FLT3 on AML5 cells; assay: cell-based or functional assay; remark: listed apart in the source
[7] = molecular target: T2, recombinant human C1q protein …; assay: ELISA; test protein immobilised in serial dilution, recombinant human C1q added, anti-C1q-HRP; remark: listed apart in the source

T2 sequence (P02745 23-245 limits assumed, chain 1 of 3): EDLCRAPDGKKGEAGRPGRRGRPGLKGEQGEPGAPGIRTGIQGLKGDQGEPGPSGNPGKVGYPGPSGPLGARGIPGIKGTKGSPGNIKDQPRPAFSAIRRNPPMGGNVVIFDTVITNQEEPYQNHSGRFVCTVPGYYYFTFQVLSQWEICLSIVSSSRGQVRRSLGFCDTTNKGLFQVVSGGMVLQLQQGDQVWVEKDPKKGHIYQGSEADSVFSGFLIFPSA
T2 sequence (P02746 28-253 limits assumed, chain 2 of 3): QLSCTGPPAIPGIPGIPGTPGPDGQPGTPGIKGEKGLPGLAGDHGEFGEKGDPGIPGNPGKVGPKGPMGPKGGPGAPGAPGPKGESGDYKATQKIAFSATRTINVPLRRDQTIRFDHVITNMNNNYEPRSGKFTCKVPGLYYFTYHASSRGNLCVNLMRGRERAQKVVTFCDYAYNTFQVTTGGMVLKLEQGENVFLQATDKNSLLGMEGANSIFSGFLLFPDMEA
T2 sequence (P02747 29-245 limits assumed, chain 3 of 3): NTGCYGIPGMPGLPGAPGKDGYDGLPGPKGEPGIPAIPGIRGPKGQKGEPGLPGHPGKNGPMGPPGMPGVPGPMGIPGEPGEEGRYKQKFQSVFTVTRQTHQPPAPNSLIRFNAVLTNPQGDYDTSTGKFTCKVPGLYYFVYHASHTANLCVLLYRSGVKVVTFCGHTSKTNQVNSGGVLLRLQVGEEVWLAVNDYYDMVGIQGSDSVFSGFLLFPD

Row | EC50 (nM), Inducing Proliferation of AML5 Cells (human FLT3 on AML5 cells [1]) | EC50 (nM), Inducing Proliferation of AML5 Cells (human FLT3 on AML5 cells [2]) | EC50 (nM), AML5 Proliferation Assay (human FLT3 on AML5 cells [4]) | EC50 (nM), AML5 Proliferation Assay (human FLT3 on AML5 cells [5]) | EC50 (nM), Inducing Proliferation of AML5 Cells (human FLT3 on AML5 cells [6]) | Binder | binding result [3] | binding result [7]
1 | 0.04 nM | 0.078 nM | 0.05 nM | 0.08 nM | 0.034 nM | human FLT3-ligand human hingeless IgG1 fusion protein (SEQ ID NO:1) (Fc fusion, Made in Expi293 or ExpiCHO; also called FLT3L ECD-hingeless hG1; hFLT3L ECD) TQDCSFQHSPISSDFAVKIRELSDYLLQDYPVTVASNLQDEELCGGLWRLVLAQRWMERLKTVAGSKMQGLLERVNTEIHFVTKCAFQPPPSCLRFVQTNISRLLQETSEQLVALKPWITRQNFSRCLELQCQPDSSTLPPPWSPRPLEATAPTAPQGGPSVFLFPPKPKDTLMISRTPEVTCVVVDVSHEDPEVKFNWYVDGVEVHNAKTKPREEQYNSTYRVVSVLTVLHQDWLNGKEYKCKVSNKALPAPIEKTISKAKGQPREPQVYTLPPSREEMTKNQVSLTCLVKGFYPSDIAVEWESNGQPENNYKTTPPVLDSDGSFFLYSKLTVDKSRWQQGNVFSCSVMHEALHNHYTQKSLSLSPGK | no binding (tested: 94 nM (top of the titration)) | 
2 |  |  | 0.037 nM |  |  | human FLT3-ligand human hingeless IgG1 (M252Y/S254T/T256E) fusion protein (SEQ ID NO:9) (Fc fusion, also called FLT3L ECD-hingeless hG1 (M252Y/S254T/T256E)) TQDCSFQHSPISSDFAVKIRELSDYLLQDYPVTVASNLQDEELCGGLWRLVLAQRWMERLKTVAGSKMQGLLERVNTEIHFVTKCAFQPPPSCLRFVQTNISRLLQETSEQLVALKPWITRQNFSRCLELQCQPDSSTLPPPWSPRPLEATAPTAPQGGPSVFLFPPKPKDTLYITREPEVTCVVVDVSHEDPEVKFNWYVDGVEVHNAKTKPREEQYNSTYRVVSVLTVLHQDWLNGKEYKCKVSNKALPAPIEKTISKAKGQPREPQVYTLPPSREEMTKNQVSLTCLVKGFYPSDIAVEWESNGQPENNYKTTPPVLDSDGSFFLYSKLTVDKSRWQQGNVFSCSVMHEALHNHYTQKSLSLSPGK |  | no binding (tested: 94 nM (top of the titration))
3 |  |  |  | 0.078 nM |  | human FLT3-ligand (S128A/S151A) human hingeless IgG1 fusion protein (SEQ ID NO:5) (Fc fusion, also called Aglyco-FLT3L ECD (S128A/S151A) hingeless hG1) TQDCSFQHSPISSDFAVKIRELSDYLLQDYPVTVASNLQDEELCGGLWRLVLAQRWMERLKTVAGSKMQGLLERVNTEIHFVTKCAFQPPPSCLRFVQTNIARLLQETSEQLVALKPWITRQNFARCLELQCQPDSSTLPPPWSPRPLEATAPTAPQGGPSVFLFPPKPKDTLMISRTPEVTCVVVDVSHEDPEVKFNWYVDGVEVHNAKTKPREEQYNSTYRVVSVLTVLHQDWLNGKEYKCKVSNKALPAPIEKTISKAKGQPREPQVYTLPPSREEMTKNQVSLTCLVKGFYPSDIAVEWESNGQPENNYKTTPPVLDSDGSFFLYSKLTVDKSRWQQGNVFSCSVMHEALHNHYTQKSLSLSPGK | no binding (tested: 94 nM (top of the titration)) | 
4 |  |  |  | 0.071 nM |  | human FLT3-ligand (Δ10 amino acid) human hingeless IgG1 fusion protein (SEQ ID NO:7) (Fc fusion) TQDCSFQHSPISSDFAVKIRELSDYLLQDYPVTVASNLQDEELCGGLWRLVLAQRWMERLKTVAGSKMQGLLERVNTEIHFVTKCAFQPPPSCLRFVQTNISRLLQETSEQLVALKPWITRQNFSRCLELQCQPDSSTLPPPWSPRPGGPSVFLFPPKPKDTLMISRTPEVTCVVVDVSHEDPEVKFNWYVDGVEVHNAKTKPREEQYNSTYRVVSVLTVLHQDWLNGKEYKCKVSNKALPAPIEKTISKAKGQPREPQVYTLPPSREEMTKNQVSLTCLVKGFYPSDIAVEWESNGQPENNYKTTPPVLDSDGSFFLYSKLTVDKSRWQQGNVFSCSVMHEALHNHYTQKSLSLSPGK | no binding (tested: 94 nM (top of the titration)) | 
5 |  |  |  | 0.083 nM |  | human FLT3-ligand (Δ5 amino acid) human hingeless IgG1 fusion protein (SEQ ID NO:2) (Fc fusion, also called FLT3L ECD (Δ C-term 5aa (PTAPQ))-hingeless hG1) TQDCSFQHSPISSDFAVKIRELSDYLLQDYPVTVASNLQDEELCGGLWRLVLAQRWMERLKTVAGSKMQGLLERVNTEIHFVTKCAFQPPPSCLRFVQTNISRLLQETSEQLVALKPWITRQNFSRCLELQCQPDSSTLPPPWSPRPLEATAGGPSVFLFPPKPKDTLMISRTPEVTCVVVDVSHEDPEVKFNWYVDGVEVHNAKTKPREEQYNSTYRVVSVLTVLHQDWLNGKEYKCKVSNKALPAPIEKTISKAKGQPREPQVYTLPPSREEMTKNQVSLTCLVKGFYPSDIAVEWESNGQPENNYKTTPPVLDSDGSFFLYSKLTVDKSRWQQGNVFSCSVMHEALHNHYTQKSLSLSPGK | no binding (tested: 94 nM (top of the titration)) | 
6 |  |  | 0.046 nM |  |  | human FLT3-ligand (Δ5 amino acid) human IgG4 (S228P/F234A/L235A/M252Y/S254T/T256E) fusion protein (SEQ ID NO:14) (Fc fusion, also called FLT3L ECD (Δ C-term 5aa (PTAPQ))-hG4 (S228P/F234A/L235A/M252Y/S254T/T256E)) TQDCSFQHSPISSDFAVKIRELSDYLLQDYPVTVASNLQDEELCGGLWRLVLAQRWMERLKTVAGSKMQGLLERVNTEIHFVTKCAFQPPPSCLRFVQTNISRLLQETSEQLVALKPWITRQNFSRCLELQCQPDSSTLPPPWSPRPLEATAESKYGPPCPPCPAPEAAGGPSVFLFPPKPKDTLYITREPEVTCVVVDVSQEDPEVQFNWYVDGVEVHNAKTKPREEQFNSTYRVVSVLTVLHQDWLNGKEYKCKVSNKGLPSSIEKTISKAKGQPREPQVYTLPPSQEEMTKNQVSLTCLVKGFYPSDIAVEWESNGQPENNYKTTPPVLDSDGSFFLYSRLTVDKSRWQEGNVFSCSVMHEALHNHYTQKSLSLSLGK |  | no binding (tested: 94 nM (top of the titration))
